Measurements: PMC8351545 (Molecular Biology of the Cell, 2021)

Legend:
[1] = biological target: recombinant phosphomimetic CENP-T/W complex (T11D, T27D, T85D) (human) (UniProt Q96BT3); test: pull-down
[2] = biological target: recombinant full-length wild-type CENP-T/W complex (human, UniProt Q96BT3 1-561; Q5EE01 1-88); test: pull-down
Chain of recombinant full-length wild-type CENP-T/W complex (Q96BT3 whole entry, chain 1 of 2): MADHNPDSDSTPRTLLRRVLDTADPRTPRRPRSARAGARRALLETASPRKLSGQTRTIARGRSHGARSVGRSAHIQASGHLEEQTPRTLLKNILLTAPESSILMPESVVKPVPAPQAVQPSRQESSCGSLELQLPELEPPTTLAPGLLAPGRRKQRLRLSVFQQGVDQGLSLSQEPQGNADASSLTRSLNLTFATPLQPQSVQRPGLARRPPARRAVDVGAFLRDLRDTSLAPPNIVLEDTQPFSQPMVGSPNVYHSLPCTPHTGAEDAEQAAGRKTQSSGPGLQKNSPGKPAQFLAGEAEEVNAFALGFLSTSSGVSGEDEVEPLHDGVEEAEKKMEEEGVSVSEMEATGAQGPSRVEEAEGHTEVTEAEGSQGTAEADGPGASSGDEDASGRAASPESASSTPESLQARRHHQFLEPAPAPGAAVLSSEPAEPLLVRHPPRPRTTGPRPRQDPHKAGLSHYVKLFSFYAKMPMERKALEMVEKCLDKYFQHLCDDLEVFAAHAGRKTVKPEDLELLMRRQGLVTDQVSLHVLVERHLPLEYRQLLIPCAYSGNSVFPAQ
Chain of recombinant full-length wild-type CENP-T/W complex (Q5EE01 whole entry, chain 2 of 2): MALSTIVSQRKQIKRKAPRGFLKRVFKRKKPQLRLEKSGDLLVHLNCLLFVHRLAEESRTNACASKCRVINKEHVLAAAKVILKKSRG

Chain of recombinant phosphomimetic CENP-T/W complex (T11D, T27D, T85D) (human) (Q96BT3 whole entry T11D/T27D/T85D, chain 1 of 2): as the sequence (Q96BT3 whole entry, chain 1 of 2) above, with T11D, T27D, T85D counted along it
Chain of recombinant phosphomimetic CENP-T/W complex (T11D, T27D, T85D) (human) (Q5EE01 whole entry, chain 2 of 2, further chain): as the sequence (Q5EE01 whole entry, chain 2 of 2) above

Row | fold weaker recruitment than the Ndc80 proteins with shortened stalk [1] | binding result [2] | Molecule
1 | 5 times weaker | – | recombinant full-length GFP-fused human Ndc80 complex (from UniProt O14777 1-642; Q9BZD4 1-464; Q8NBT2 1-197; Q9HBM1 1-224)
2 | – | binds | human Bonsai Ndc80 complex (Bonsai Ndc80-GFP) (complex) chain 1: MKRSSVSSGGAGRLSMQELRSQDVNKQGLYTPQTKEKPTFGKLSINKPTSERKVSLFGKRTSGHGSRNSQLGIFSSSEKIKDPRPLNDKAFIQQCIRQLCEFLTENGYAHNVSMKSLQAPSVKDFLKIFTFLYGFLCPSYELPDTKFEEEVPRIFKDLGYPFALSKSSMYTVGAPHTWPHIVAALVWLIDCIKIHTAMKESSPLFDDGQPWGEETEDGIMHNKLFLDYTIKCYESFMSGADSFDEMNAELQSKLKDLFNVDAFKLESLEAKNRALNEQIARLEQERSTANKANAERLKRLQKSADLYKDRLGLEIRKIYGEKLQFIFTNIDPKNPESPFMFSLHLNEARDYEVSDSAPHLEGLAEFQENVRKTNNFSAFLANVRKAFTATVYN chain 2: METLSFPRYNVAEIVIHIRNKILTGADGKNLTKNDLYPNPKPEVLHMIYMRALQIVYGIRLEHFYMMPVNSEVMYPHLMEGFLPFSNLVTHLDSFLPICRVNDFETADILCPKAKRTSRFLSGIINFIHFREACRETYMEFLWQYKSSADKMQQLNAAHQEALMKLERLEKEVDEDTTVTIPSAVYVAQLYHQVSKIEWDYECEPGMVKGIHHGPSVAQPIHLDSTQLSRKFISDYLWSLVDTEW
